The source of these data is the DeepSol protein solubility set.

The data set in a line: soluble on expression in E. coli; label from the status in PepcDB or PDB records.
Take “SVGTAGISLLLLWYHKVRKPGIAMKLPEFLSLGNTFNSITLQDEIHDDQGTTVIFQERQLQILEKLNELLTNMEELKEEIRFLKEAIPKLEEYIQDELGGKITVHKISPQHRARKRRLPTIQSSATSNSSEEAESEGGYITANTDTEEQSFPVPKAFNTRVEELNLDVLLQKVDHLRMSESGKSESFELLRDHKEKFRDEIEFMWRFARAYGDMYELSTNTQEKKHYANIGKTLSERAINRAPMNGHCHLWYAVLCGYVSEFEGLQNKINYGHLFKEHLDIAIKLLPEEPFLYYLKGRYCYTVSKLSWIEKKMAATLFGKIPSSTVQEALHNFLKAEELCPGYSNPNYMYLAKCYTDLEENQNALKFCNLALLLPTVTKEDKEAQKEMQKIMTSLKR”: the “soluble on expression in E. coli” value was “soluble”.
As for “SVISESMDILFRIRGGLDLAFQLATPNEIFLKKALKHVLSDLSTKLSSNALVFRICHSSVYIWPSSDINTIPGELTDASACKTILRFIQFEPEEDIKRKFMRKKDKKLSDMHQIVNIDLMLEMSTSLAAVTPIIERESGGHHYVNMTLPVDAVISVAPEETWGKVRKLLVDAIHNQLTDMEKCILKYMKGTSIVVPEPLHFLLPGKKNLVTISYPSGIPDGQLQAYRKELHDLFNLPHDRPYFKRSNAYHFPDEPYKDGYIRNPHTYLNPPNMETGMIYVVQGIYGYHHYMQDRIDDNGWGCAYRSLQTICSWFKHQGYTERSIPTHREIQQALVDAGDKPATFVGSRQWIGSIEVQLVLNQLIGITSKILFVSQGSEIASQGRELANHFQSEGTPVMIGGGVLAHTILGVAWNEITGQIKFLILDPHYTGAEDLQVILEKGWCGWKGPDFWNKDAYYNLCLPQRPNMI”, the entry is “not soluble”; as for “SVSTTFRRIVSPCWRPFGIGEDSSPGSDDTNGRLDGLLWYKDSGNHITGEFSMAVVQANNLLEDHSQLESGPISLHESGPEATFVGVYDGHGGPEAARFVNDRLFYNIKRYTSEQRGMSPDVITRGFVATEEEFLGLVQEQWKTKPQIASVGACCLVGIVCNGLLYVANAGDSRVVLGKVANPFKELKAVQLSTEHNASIESVREELRLLHPDDPNIVVLKHKVWRVKGIIQVSRSIGDAYLKRAEFNQEPLLPKFRVPERFEKPIMRAEPTITVHKIHPEDQFLIFASDGLWEHLSNQEAVDIVNSCPRNGVARKLVKAALQEAAKKREMRYSDLEKIERGIRRHFHDDITVIVVFLHATNFATRTPISVKGGGLLSAHNPVL”, “soluble”; as for “SVYINRMTGLSTFVAPTDDLHTACTKDLTTVAVDVLLGNDAVDAAAAAVSEPLQSLFSEWSNPVFARYPEVAVDVSSGQAESLAVKIHNVLYPYRFTKEMIHSVKVLQQVDNKFIACLMSTRMDEDGRTGGNLLVLVDQHAAHERIRLEQLITDSYEKQDPQSAGRKKLLSSTIIPPLAITVSEEQRRLLRN”, “soluble”.
As for “SYIDIPPEGSETKNRHNANNPSDVLVIENKHLTKEWPSGGQMMVNNLTAKYTSDGRAVLQDLSFSVNAGQRVGLLGRTGAGKSTLLSALLRLLSTEGEIQIDGISWNSVSLQKWRKAFGVIPQKVFVFSGTFRKNLDPYEQWSDEEIWKVTEEVGLKSMIEQFPDKLNFVLVDGGYILSNGHKQLMCLARSILSKAKILLLDEPTAHLDPVTFQIIRKTLKHTFSNCTVILSEHRVEALLECQQFLVIEGCSVKQFDALQKLLTEASLFKQVFGHLDRAKLFTAHRRNSSKRKTRPKISALQ”, the “soluble on expression in E. coli” value was “not soluble”.
The same measure for “TDDVEEDGEPSYKRVAEPEEDESAKPFGGEKAKAARPEPAVKGVRHTSPAPTAAPEKKTSWWDSFKAWLKRIFGGSETQAAPAAETSEKRSTANRSGSRANNRRQNPRRSKREGSKVEVREVAGKTAGQEARADKAETRNNGNRRRNERGDRAAERANEAEIQSRNVQPAATVADAAPSETEVQTGKRRRNGSRSERGQTAPETATVAETTVQTAENTPSEPHTAEDKGSKPKSERNRRERDSRDAKERRERNNQRDRRQNGKKRNIPSAAKIEQYLNIHDTADKVRSAAAHVFGETDANAPITVSIADPVAERDLPTASPAVSNGDAPVYDAAEKIRRATAAILPEGATPKAEAQEMPSETATFTAAAEQARETAQTGGLVLIETDPAALKAWAAQPEVQAGRGLRRSEQPKPSEVATVPAEEMIQVETRQG”: “not soluble”; for “TEDSLMPEEEFLRRNKGPVSIKVQVPNMQDKTEWKLNGQGLVFTLPLTDQVSVIKVKIHEATGMPAGKQKLQYEGIFIKDSNSLAYYNMASGAVIHLALKER”: “soluble”.
Consider “TEKTKAVETTDVALAIDTLVQNGLKALDEMRQLNQEQVDYIVAKASVAALDAHGELALHAVEETGRGVFEDKATKNLFACEHVVNNMRHTKTVGVIEEDDVTGLTLIAEPVGVVCGITPTTNPTSTAIFKSLISLKTRNPIIFAFHPSAQESSAHAARIVRDAAIAAGAPENCVQWIEQPSIDATNALMNHDGIATILATGGNAMVKAAYSCGKPALGVGAGNVPAYVEKSANIRQAAHDIVMSKSFDNGMVCASE”, for which the “soluble on expression in E. coli” value is “not soluble”.
The same measure for “TETTSFLITKFSPDQQNLIFQGDGYTTKEKLTLTKAVKNTVGRALYSSPIHIWDRETGNVANFVTSFTFVINAPNSYNVADGFTFFIAPVDTKPQTGGGYLGVFNSAEYDKTTQTVAVEFDTFYNAAWDPSNRDRHIGIDVNSIKSVNTKSWKLQNGEEANVVIAFNAATNVLTVSLTYPN”: “soluble”; for “TGAQTKLTQTGAITTVNVDHLKANPSSSIVNTLAGNVAGVLAMQTSGQPGKNVSEFWIRGISTFGASTSAYVLVDGFERSMDEINIEDIESFSVLKDASATAIYGSKGANGVVLITTKHGKAG”: “not soluble”; for “TGIEQLEFQRESSVSTTLQGVCEPILAILVQGKKEALLCDETYRYSAAQYLVVSVDLPLSAFIVEATPEKPYLGFKLNLDPRQLCDIITAQTNVIEEKKNSVRGLFVSTIDAPLLDCAMRLTRLLDTPQDIPILAPMIIREIYYRLLMGEQGEAV”: “not soluble”.
As for “TGSIGSAARKILLAKTDVQLTLYSRRADRLKLIVDRETAVAGSVTDDDQLDQAIKGQDFVFVALNGDMDSFAAHIISAMERNGIQRLIFITTMGIYQEIPAWLGDSPEPYHNPILKSFRQAADRIEQSDLNYTIIRPGWYNN”, the entry is “not soluble”.
For the sequence “TIPISDKITLYIGRNSANNEKLTFGFAKPDDLWLHARGASGSHCVLKGATMRHTSEIQRAAEIAAWHSSAKHSELVPVICTQKKYLKK”, the “soluble on expression in E. coli” value is “not soluble”.
The same measure for “TIVYDKDGDKAGELSSTDATFVSIDKISKNLQNAVVSIEDRRFYEHKGFDLKGIARAGVNLITNGGISGGGSTITQQLAKNALLTQEQTFTRKAKEIFMAREIEKTYSKDEIMEMYLNRSYFGNGEWGVENASLKYFGKPAADLNIPEAATIAGLLQAPSAYDPYQHI”: “not soluble”.
Turning to “TKTTTQGAKSGVFDTVDEAVQAAVIAQNCYKEKSLEERRNVVKAIREALYPEIETIATRAVAETGMGNVTDKILKNTLAIEKTPGVEDLYTEVATGDNGMTLYELSPYGVIGAVAPSTNPTETLICNSIGMLAAGNAVFYSPHPGAKNISLWLIEKLNTIVRDSCGIDNLIVTVAKPSIQAAQEMMNHPKVPLLVITGGPGVVLQAMQSGKKVIGAGAGNPPSIVDETANIEKAAADIVDGASFDHNILCIAE”, the “soluble on expression in E. coli” value is reported as “not soluble”.
The same measure for “TLDPNAQQTAYEQLSQSGYEGAVVALRPSTGEVLAMASSPSYDPNQIVDPATAEDAWAEYTSTEGAPLLNHATQESLPPGSIFKIITTAAALENGYSADSTVTAEAAVTLPGTNTTLTNYGGQTCAGGGTTTLLTAFQLSCNTAFVETGIDVGADALRASAEDFGVGQTYSLGLDNVPGGLGEIPDDAALGQSSIGQRDVQMNVLQAAVMAGTVSNGGVRMEPYLVSRVTGQDLSELSTHKPKSVGGVEPEIAEQLKTLMEASERNTSGYTGIQIASKTGTAEHGDENTPPHTWYVAFNNDIAVAVLVKDGGGFGTSATGGQVAAPIGRAVLQAAGGF”: “not soluble”; for “TLIFDREEKEAGALSGQKGTYVELTDISKNLQNAVIATEDRSFYKNDGINYGRFFLAIVTAGRSGGGSTITQQLAKNAYLSQDQTVERKAKEFFLALELSKKYSKEQILTMYLNNAYFGNGVWGVEDASKKYFGVSASEVSLDQAATLAGMLKGPELYNPLNSV”: “not soluble”; for “TLIHIYDTSEPELDVQVTGYQWKWQYKYLGQDVEYFSNLATPQDQIHNRQAKDEHYLLEVDEPLVLPVGTKVRFLITSSDVIHSWWVPAFAVKRDAIPGFVNEAWTKVDEPGIYRGQCAELCGKDHGFMPIVVDVKPKAEFDQWLAKRKEEAAKVKELTSKEWTKEELVARGDKVYHTICAACHQAEGQGMPPMFPALKGSKIVTGPKEHHLEVVFNGVPGTAMAAFGKQLNEVDLAAVITYERNAWGNDDGDMVTPKDVVAYKQK”: “not soluble”.
Take “TLVRVKKSAATLGIAIEGGANTRQPLPRIVTIQRGGSAHNCGQLKVGHVILEVNGLTLRGKEHREAARIIAEAFKTKDRDYIDFLVTEFN”: the “soluble on expression in E. coli” value was “soluble”.
Turning to “TMITNSRGSVDLQPSLTGVFPSGLIETKVSAAKITENYQFDSRIRLNSIGFIPNHSKKATIAANCSTFYVVKEDGTIVYTGTATSMFDNDTKETVYIADFSSVNEEGTYYLAVPGVGKSVNFKIAMNVYEDAFKTAMLGMYLLRCGTSVSATYNGIHYSHGPCHTNDAYLDYINGQHTKKDSTKGWHDAGDYNKYVVNAGITVGSMFLAWEHFKDQLEPVALEIPEKNNSIPDFLDELKYEIDWILTMQYPDGSGRVAHKVSTRNFGGFIMPENEHDERFFVPWSSAATADFVAMTAMAARIFRPYDPQYAEKCINAAKVSYEFLKNNPANVFANQSGFSTGEYATVSDADDRLWAAAEMWETLGDEEYLRDFENRAAQFSKKIEADFDWDNVANLGMFTYLLSERPGKNPALVQSIKDSLLSTADSIVRTSQNHGYGRTLGTTYYWGCNGTVVRQTMILQVANKISPNNDYVNAALDAISHVFGRNYYNRSYVTGLGINPPMNPHDRRSGADGIWEPWPGYLVGGGWPGPKDWVDIQDSYQTNEIAINWNAALIYALAGFVNYNSPQNEVLYGDVNDDGKVNSTDLTLLKRYVLKAVSTLPSSKAEKNADVNRDGRVNSSDVTILSRYLIRVIEKLPI”, the “soluble on expression in E. coli” value is “soluble”.
On to “TMNNEMSDPQIEEFYTIVKELEKFDTFTNFLDVHQPELAIVFGRTKRRVDELTSALISKGYKAEGLHGDITQAKRLEVLKKFKNDQINILVATDVAARGLDISGVSHVYNFDIPQDTESYTHRIGRTGRAGKEGIAVTFVNPIEMDYIRQIEDANGRKMSALRPPHRKEVLQAREDDIKEKVENWMSKESESRLKRISTELLNEYNDVDLVAALLQELVEANDEVEVQLTFEKPLSRKGRNGKPSGSR”, for which the “soluble on expression in E. coli” value is reported as “not soluble”.
With “TMNPLYSLKRSEERRNVVLSRMLDEKYISKEEYDAALKEPIVASYHGAKFEFRADYVTEMVRQEMVRRFGEENAYTSGY”, the “soluble on expression in E. coli” value was “not soluble”.
In the case of “TPDTLELSLDKPAYRPGETAQLRIVPRAPGKALVTVLSNRVIAMKAVEVGEGETLVDLPVTDEWGTGVYVTATLLRPMDVAAGRNPTRALGLAHAAIDPGEKRLGATIETAAEAAPRGPMEIAVKVEGTAPGETVHATIAAVDVGILNLTGF”, the “soluble on expression in E. coli” value was “not soluble”.
For “TPTEGLTIGDKAPTFTICGEKQLIDLKDLRGKYVLLSFWASYDALSRMQNATLNHAVAQADNVEMVSVSFDEYKSIFNETIKKDQISTSNCFVELAGVSSDLYQTYRLKRGFKNFLLDENGVIVAKDVTVSELSS”, the “soluble on expression in E. coli” value is “not soluble”.
